We go through one substance from article PMC9655291.

Test [1] addresses eel follicle-stimulating hormone receptor wild-type (eel).

Consider “recombinant eel FSH (tethered eel FSH β/α) (ligand)”, for which the EC50 of cAMP accumulation (HTRF) in transfected CHO-K1 cells stimulated with rec-eel FSH, 0.01-1500 ng/mL in the test with eel FSHR-N120Q (eel) is 0.283 µg/mL; in the test with eel FSHR-N272Q (eel), 0.327 µg/mL; in the test with eel FSHR-N288Q (eel), 0.281 µg/mL; in test [1], 0.201 µg/mL.
